Here are results for 16 molecules from US20240218054A1 (MABLOC, published 2024).

The target in this experiment is T1, recombinant YFV E protein (soluble E, sE; YFV Asibi strain) (Yellow fever virus, Asibi strain, UniProt Q6DV88 286-678).
T1 construct: also called YFV E antigen; YFV E monomer
The experiment is described as follows: BLI monovalent (IgG on tip).

Numbering of substitutions follows the chain as printed. Some results are limits rather than exact numbers.

T1 sequence (Q6DV88 286-678): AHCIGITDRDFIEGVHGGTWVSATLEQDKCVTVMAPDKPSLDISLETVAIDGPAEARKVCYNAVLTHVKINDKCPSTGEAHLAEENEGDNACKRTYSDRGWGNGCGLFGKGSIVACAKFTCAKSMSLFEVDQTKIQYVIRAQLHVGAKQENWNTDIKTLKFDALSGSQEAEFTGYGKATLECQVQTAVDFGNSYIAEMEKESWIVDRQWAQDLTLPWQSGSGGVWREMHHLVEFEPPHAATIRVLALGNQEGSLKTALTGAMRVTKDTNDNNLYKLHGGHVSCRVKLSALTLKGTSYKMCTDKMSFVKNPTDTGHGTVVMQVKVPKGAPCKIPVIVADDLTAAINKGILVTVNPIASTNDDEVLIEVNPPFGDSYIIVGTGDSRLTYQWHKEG

B1: ADI-48894 (antibody, V domains shown)
VH: EVQLVESGGGLVQPGGSLRLSCAVSGFTFSDHYMDWVRQAPGKGLEWVGRSRNKVNSYITEYAASVKGRFSISRDDSKNSLYLQMNSLKIEDTAVYYCARVFGGPTDYWGQGTLVTVSS
VL: EIVLTQSPSSLSASVGDRVTITCRASQGISNYLAWYQQKPGKAPKLLIYAASTLQSGVPSRFSGSGSGTDFILTISSLQPEDVATYYCQKYYSAPLITFGPGTKVEIK
notes: full-length IgG
As to B1, the Kd came to 95.6 nM.

B2: ADI-50197 (antibody, V domains shown)
VH: EVQLVESGGGVVQPGRSLRLSCAASGFTFSSYGMHWVRQAPGKGPEWVAVISEDGNKDHYVDSVKGRFSIYRDNSKSTVFLRMTSLRAEDTAVYYCAKDLTPYFYDSGAFDHWGQGTLVTVSS
VL: QSVLTQPPSVSGAPGQRVTISCTGNSSNIGAGYEVHWYQQLPGTAPKLLIYGNNNRPSGVPDRFSGSKSGASGSLAVTGLRAEDEADYYCHSYDSNMSGSVFGGGTKVTVL
notes: full-length IgG; also called Antibody Number 120
Regarding B2, the Kd is above 100 nM.

B3: ADI-42195 (antibody, V domains shown)
VH: EVQLLESGGGMVQPGRSLRLSCAASGFTFDDYDMHWVRQGPGKGLEWVSGISWNSGGRGYADSVKGRFTISRDNAKNSLYLQMNSLRVEDTALYYCVKDYCSGGRCYSFDYWGQGTLVTVSS
VL: DIQMTQSPSSLSASVGDRVTITCQASQDISNYLNWYQQKPGKAPKLLIYDVSKLKTGVPPRFSGSGSGTDFTFTISSLQPEDIATYYCQQWGTFGQGTKVDIK
notes: full-length IgG; also called Antibody Number 116
Turning to B3, the Kd was 1.86 nM.

B4: ADI-49137 (antibody, V domains shown)
VH: EVQLVESGGGLVQPGGSLRLSCAASGFIFSDHYMAWVRQAPGKGLEWVGHVGNKANTYTTEYAASVKGRFTISRDDSKKSLYLQMNRLKSEDTAVYYCARVFSYYLDYWGQGTPVTVSS
VL: EIVLTQSPGTLALSPGERATLSCRASQSVSSYLAWYQQKPGQAPRLLIYDSSNRATGIPARFSGSGSGTDFTLTISSLEPEDFAVYYCQQPGNWPPAFTFGGGTKLEIK
notes: full-length IgG; also called Antibody Number 126
In the case of B4, the Kd was 0.854 nM.

B5: ADI-49037 (antibody, V domains shown)
VH: EVQLVESGGGVVQPGRSLRLSCAASGFTLSSYVMHWVRQAPGKGLEWVAVISSDGTNKYYADSVKGRFTISRDSSKNTLYLQMNSLRPEDSAVYYCARGQPDYWGQGTLVTVSS
VL: EIVLTQSPATLSLSPGERATLSCRASQSVSNYFAWYQQKPGQAPRLLIYGASNRATGVPARFSGSGSGTDFTLTISSLEPEDFAVYYCQQRSNWPYTFGQGTKVEIK
notes: full-length IgG
With B5, the Kd worked out at 3.53 nM.

B6: ADI-49140 (antibody, V domains shown)
VH: EVQLVESGGGLVQPGGSLRLSCAASGFTFSDHYMDWVRQAPGRGLEWVGRSRNKVNSYTTDYAASVKGRFTISRDDSKNSLFLRMNSLKTEDTAVYYCARLTDSGYDDWGLGTLVTVSS
VL: QPELTQPPSVSVSPGQTARITCSGDALSKQYAYWYQQKPGQAPVVVIYKDSERPSGIPERFSGSRSGTTVTLTISGVQAEDEADYYCHSPDSHVVFGGGTKLTVL
notes: full-length IgG
With B6, the dissociation constant Kd came to 1.04 nM.

B7: ADI-48969 (antibody, V domains shown)
VH: QVTLKESGGALVKPAGSLTLSCAASGFTFGDYYMSWIRQAPGKGLEWISYISSSGSSIYYTDSVRGRFTISRDNARNSLYLQMNSLRVEDTAVYYCAREFSSRPFDLWGQGTLVTVSS
VL: QSVLTQPRSVSGSPGQSVTISCTGTSSDVGAYNFVSWYQQYPGKAPKLMIYDVNKRPSGVPDRFSGSKSGNTASLTISGLQAEDEADYHCCSYAGTYTSNYVFGSGTKVTVL
notes: full-length IgG; also called Antibody Number 12
As for B7, the Kd amounted to 5.86 nM.

B8: ADI-42172 (antibody, V domains shown)
VH: QVQLVESGGGVVQPGRSLRLSCAASGFTFSSYGMHWVRQAPGKGLEWVAVMSYDGSNKYYADSLKGRFTISRDNSKNTLYLQMNSLRAEDTAVYFCAKAYDSSAYYYLDYWGQGTLVTVSS
VL: EIVLTQSPSTLSASVGDRVTITCRASQSISDWLAWYQQKPGKAPNLLIYRASSLESGVPSRFSGSGSGTEFTLTISSLQPDDFATYYCQQYNRYPYTFGQGTKVEIK
notes: full-length IgG; also called Antibody Number 117
In the case of B8, the Kd stood at 129 nM.

B9: ADI-42178 (antibody, V domains shown)
VH: B8 VH with Q1E, V12I, T28N, M51I, L64V, Y94H, F95Y, S103R, A104G
VL: B8 VL with E1D, V3Q, Y36F, N45K, S53G, S56T, P95S
notes: full-length IgG
For B9, the Kd was found to be 34.4 nM.

B10: ADI-42810 (antibody, V domains shown)
VH: QVQLVESGAEEKKPGASVKVSCKASGYTFTSYAMHWVRQAPGQRLEWMGWINAGNGNTKYSQKFQGRVTITRDTSASTAYMELSSLRSEDTAVYYCARQWLGHFDYWGQGTLVTVSS
VL: QSALTQPASVSGSPGQSITISCTGTSSDVGGYNYVSWYQQHPGKAPKLMIYEVSNRPSGVSNRFSGSKSGNTASLTISGLQAEDEADYYCSSYTSSSTYVFGTGTKVTVL
notes: full-length IgG
Turning to B10, the Kd is above 100 nM.

B11: ADI-49032 (antibody, V domains shown)
VH: EVQLVQSGGGLVQPGGSLRLSCVGSGLTLSSSAMSWVRQAPGKGLECVSGITGSGSDSSYAASVKGRFTISRDNSKNTVYLQMNSLRAEDTAVYYCAKDLTHRLGSIFGKLTFDAFDIWGPGTMVTVSS
VL: DIRLTQSPSTLSASVGDRVTITCRASQSISGWLAWYQQKPGKAPKLLIYKASILESGVPSRFSGSQSGTEFTLTISSLQPDDFATYYCQQYNNFWTFGQGTKLEIK
notes: full-length IgG; also called Antibody Number 119
Take B11: the Kd is 0.486 nM.

B12: ADI-46739 (antibody, V domains shown)
VH: EVQLVESGPGLVKPSGTLSLTCAVSGGSISSDNWWSWVRQAPGKGLEWIGEIYHTGSTSYNPSLKSRVTISLDKSKNHFSLKLNSLTAADTAVYYCAGKKWELLGFRFDPWGQGTLVTVSS
VL: NFMLTQPPSVSAAPGQKVTISCSGSNSNIGNNFVSWYQQLPGTAPKLLIYDNNERPSGIPDRFSGSKSVTSATLGITGLQTGDEADYYCGTWDNSLGMVVFGGGTKLTVL
notes: full-length IgG; also called Antibody Number 124
For the molecule B12, the Kd was above 100 nM.

B13: ADI-42226 (antibody, V domains shown)
VH: EVQLLESGGGLVQPGGSLRLSCAASGFIFSDHYMDWVRQAPGKGLEWVGRIRNKPNSYTTDYAAYVKGRFSISRDDSKNSLFLQMNSLKTEDTAVYYCARVVNGLDVWGQGTTVTVSS
VL: SYELTQPPSVSVSPGQTARITCSGDALPKQYAYWYQQKPGQAPVLVIYKDTERPSGIPERFSGSSSGTTVTLTISGVQAEDEADYYCQSADSSVADSSVVFGGGTKLTVL
notes: full-length IgG
For the molecule B13, the Kd came to 0.843 nM.

B14: ADI-50534 (antibody, V domains shown)
VH: EVQLQESGPGLVKPSETLSLTCTVSGGSISSSSYYWGWIRQPPGKGLEWIGSIYYSGSTYYNPSLKSRVTISVDTSKNQFSLKLSSVTAADTAVYYCARHSSGSYYLAGYYFDYWGQGTLVTVSS
VL: NFMLTQPHSVSESPGKTVTISCTRSSGSIASNYVQWYQQRPGSAPTTVIYEDNQRPSGVPDRFSGSIDSSSNSASLTISGLKTEDEADYYCQSYDSSNWVFGGGTKLTVL
notes: full-length IgG
Take B14: the Kd is above 100 nM.

B15: ADI-46741 (antibody, V domains shown)
VH: EVQLVESGPGLVKPSETLSLTCTVSGGSISSYYWSWIRQPPGKGLEWIGYIYYSGSTNYNPSLKSRVTISVDTSKNQFSLKLSSVTAADTAVYYCARETCSGGSCYYRVGSAFDIWGQGTTVTVSS
VL: SYELIQLPSASVAPGKTARITCGGNNIGSKSVHWYQQKPGQAPVLVVYDDSDRPSGIPERFSGSNSGNTATLTISRVEAGDEADYYCQVWDSSSDHEVFGGGTKLTVL
notes: full-length IgG; also called Antibody Number 115
On to B15, for which the equilibrium dissociation constant (Kd) is above 100 nM.

B16: ADI-42216 (antibody, V domains shown)
VH: QVTLKESGPVLVKPTETLTLTCTVSGFSLSNTKMGVTWIRQPPGKALEWLAHIFSNDEKSCNTSLKSRLTISKDTSKSQVVLTMTNMDPVDTATYYCARLWFTEYPGAFDIWGQGTMVTVSS
VL: QAVVTQPPSASGSPGQSVTISCTGTSSDVGGYNYVSWYQQHPGKAPKLMVYEVTKRPSGVPDRFSGSKSGNAASLTVSGLQAEDEAEYYCSSYAGSNALVFSGGTKLTVL
notes: full-length IgG; also called Antibody Number 112
On to B16, for which the Kd came out at 11.4 nM.

A word on the Kd: it is the constant that tells how readily two partners part at equilibrium.
